assay: yeast display, Sf9 membrane polyspecificity reagent, FACS + sequencing; frameworks hold sequencing errors
How it was run: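 After 36–48 hours of galactose induction, yeast (Saccharomyces cerevisiae BJ5465) displaying a synthetic nanobody library were stained at 4 °C for 1 hour with 10% biotinylated, detergent-solubilized Sf9 membrane reagent. Streptavidin microbeads enriched the stained cells before FACS sorting into low and high (top ~1%) gates on anti-HA and streptavidin fluorescence. Each clone's polyreactivity label reflects its gate of origin.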

| Sequence | polyreactivity (PSR sort gate) |
| --- | --- |
| QVQLVESGGGLVQAGGSLRLSCAASGSIFVSYAMGWYRQAPGNDRELVAAISGGGVSTYYADSVKGRFSISRDNAKNTVYLQMNSLKPEDTAVYYCATPYVQTGSGYTGDYWGQGTQVTVSS | high polyreactivity |
| QVQHVESGGGLVQAGGSLRLSCAASGSIFLIYAMGWYRPAPGKERELVAAITGGGTTNYADSVKGRFTISRDNAKHTVYFQMNSLKPEDTAVYYCNTLYLVYLYWTSPTPSDLFDYWGQGTQVTVSS | low polyreactivity |
| QVQLVESGGGLVQAGGSLRLSCAASGSTYSYYTMGWYIQAPGKERELVATISRRGASTYYADSVKGRFTISRDNAKNTVYLQMNSLKPEDTAVYYCAKSYYYGRSATRPEYDYWGQGTQVTVSS | high polyreactivity |
| QVQLVESGGGLVQAGRSLPLSCAASGRIIELYGMGWKRPATGKERELVAAMSYGGGSTYYAESVKGRFTISRDNAKNTVYLQMNSLKPEDTAVYYCAARYRTLTKYYWGQGTQVTVSS | low polyreactivity |
| QVQLVESGGGLVQAGGSLRLSCAASGRTFKYNTMGWYRQAPGKERELVAVISRSGGRTYYADSVKGRFTISRDNAKNTVYLQMNSLKPEDTAVYYCAARARGNDGYYWGQGTQVTVSS | high polyreactivity |
| QVQLVESGGGLVQAGGSLRLSCAASGSTFVNYAMGWYRQAPGKERELVAAITRGGRTYYADSVKGRFTISRDNAKNTVYLQMNSLKPEDTAVYYCAARRSYNPAFGYWGQGTQVTVSS | high polyreactivity |
| QVQLVESGGGLVQAGGSLRLSCAASGLTFWVYAMGWYRQAPGKERELVAAISGSGARTYYADSVKGRFTISRDNAKNTVYLQMNSLKPEDTAVYYCAARAVRATAKYEYWGQGTQVTVSS | high polyreactivity |
| QVQLVESGGGLVQAGGSLRLSCAASGNIFESYGMGGYRQAPGKERELVAAISFSGDSTYYADSVKGRFTISRDNAKNSVYLQMNSLKPEDTAVYYCATDVGYVYGYYYWGQGTQVTVSS | low polyreactivity |
| QVQLVESRGGLVHAGGSLGLSCAASGSTFGVNAMGWYRQAPGKERELVASISSGGGTYYADSVKGRFTISRDNSKNTVYLQMNSLKPEDTAVYYCAAVYYWYDSYAGYDYWGQGTQVTVSS | low polyreactivity |
| QVHLVESGGGLVQAGGSLRLSCAASGRIFRGYAMGWYRQAPGKERELVATISWNGGSTYYADSVKGRFTISRDNAKNTVYLQMNSLKPEDTAVYYCNKRYWGGRYGYDYWGQGTQVTVSS | high polyreactivity |
| QVQLVDSGGGLVQAGGSLRLSCAASGRTIGGNAMGWSRQAPGKERELVAGINISGGSTNYADSVKGRFTISRDNAKNTVYLQMNSLKPEDTAVYYCNADTAVYAWDDDYWGQGTQVTVSS | low polyreactivity |
| QVQLVESGGGLVQAGGSLRLSCAASGSTFLTYAMGWYRQAPGKERELVAAIRWSGGSTYYADSVKGRFTISRDNAKNTVYLQMNSLKPEDTAVYYCAARSPRASGNSDYWGQGTQVTVSS | high polyreactivity |
| QVQLVESGGGLVQAGGSLRLSCAASGSTFFRYAMVWYRQAPGKERELVAAITWTGGDTYYEDSVKVRFTISRDNAMNTVYLKMNSLKPEDTAVYYCNKRLDSYYLPGFDYWGQGTQVTVSS | low polyreactivity |
| QVQLVESGGGLVQAGGSLRLSCAASGYSLYANAKGWSRQAPGKERELVASITFGDDSTYYADSVKGRFTISRDNAKNTVDLQMNSLKPEDTAVYYCNADHKVEVEDDYCGQGTQVTVSS | low polyreactivity |
| QVQLVESGGGLVQAGGSLRLSCAASGRSFVSYAMGWYRQAPGKERELVASITSSDGTNYADSVKGRFTISRDNEKNTVYLQMNSLKPEDTAVFYCNKDGFTTDRIGPTSDYWGQGTQVTVSS | low polyreactivity |
| QVQLVESGGGLVQAGGSLRLSCAASGITFDYYAMGWYRQAPGKERELVAAIDTGGSTNYADSVKGRFTISRDNAKNTVYLQMNSLKPEDTAVYYCAKDPHGSDFGYWGQGTQVTVSS | low polyreactivity |
| QVQLVESGGGLVQAGGSLRLSCAASGRTFSVYAMGWYRQAPGKERELVAAIRTSGGITYYADSVKGRFTISRDNAKNTVYLQMNSLKPEDTAVYYCAAETFRPYSYTRYYYWGQGSQVTVSS | high polyreactivity |
